Results published in US20210230570.

Molecular target: Factor X (FX), P00742
Sequence (P00742 whole entry, looked up): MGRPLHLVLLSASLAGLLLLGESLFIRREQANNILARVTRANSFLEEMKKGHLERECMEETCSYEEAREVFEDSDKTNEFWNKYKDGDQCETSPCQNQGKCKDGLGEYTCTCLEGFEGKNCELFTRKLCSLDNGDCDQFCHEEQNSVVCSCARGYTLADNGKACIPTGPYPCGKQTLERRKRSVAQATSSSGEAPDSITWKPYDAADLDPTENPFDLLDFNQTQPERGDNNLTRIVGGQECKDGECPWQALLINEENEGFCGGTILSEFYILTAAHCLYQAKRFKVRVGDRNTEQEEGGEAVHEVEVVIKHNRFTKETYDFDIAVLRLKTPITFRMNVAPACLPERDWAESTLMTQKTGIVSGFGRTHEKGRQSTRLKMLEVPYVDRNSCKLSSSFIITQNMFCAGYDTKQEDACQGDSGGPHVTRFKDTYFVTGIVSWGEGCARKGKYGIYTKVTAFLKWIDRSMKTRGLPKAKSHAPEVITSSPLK

Row | Protein | kcat | kcat/KM | kcat (s^-1) for activation of FX by FIXa in the Xase complex (FVIIIa, PC/PS vesicles, Ca2+), fluorogenic Spectrafluor FXa read-out | KM | kcat of FX activation by FIXa in the Xase complex (FVIIIa, PC/PS vesicles, Ca2+)
1 | FIXa-Y155F/K247N/N249S/R318Y/R338E/T343R (protein) chain 1: YNSGKLEEFVQGNLERECMEEKCSFEEAREVFENTERTTEFWKQYVDGDQCESNPCLNGGSCKDDINSYECWCPFGFEGKNCELDVTCNIKNGRCEQFCKNSADNKVVCSCTEGYRLAENQKSCEPAVPFPCGRVSVSQTSKLTR chain 2: VVGGEDAKPGQFPWQVVLNGKVDAFCGGSIVNEKWIVTAAHCVETGVKITVVAGEHNIEETEHTEQNRSVIRIIPHHNYNAAINKYNHDIALLELDEPLVLNSYVTPICIADKEYTNIFLKFGSGYVSGWGRVFHKGYSALVLQYLRVPLVDRATCLESTKFRIYNNMFCAGFHEGGRDSCQGDSGGPHVTEVEGTSFLTGIISWGEECAMKGKYGIYTKVSRYVNWIKEKTKLT | 8.5 s⁻¹ | 3.6e+08 M⁻¹ s⁻¹ |  |  | 
2 | FIXa-K228N/K247N/N249S/R318Y/R338E/T343R/R403E (protein) chain 1: YNSGKLEEFVQGNLERECMEEKCSFEEAREVFENTERTTEFWKQYVDGDQCESNPCLNGGSCKDDINSYECWCPFGFEGKNCELDVTCNIKNGRCEQFCKNSADNKVVCSCTEGYRLAENQKSCEPAVPFPCGRVSVSQTSKLTR chain 2: VVGGEDAKPGQFPWQVVLNGKVDAFCGGSIVNEKWIVTAAHCVETGVNITVVAGEHNIEETEHTEQNRSVIRIIPHHNYNAAINKYNHDIALLELDEPLVLNSYVTPICIADKEYTNIFLKFGSGYVSGWGRVFHKGYSALVLQYLRVPLVDRATCLESTKFRIYNNMFCAGFHEGGRDSCQGDSGGPHVTEVEGTSFLTGIISWGEECAMKGKYGIYTKVSEYVNWIKEKTKLT |  | 2.9e+08 M⁻¹ s⁻¹ | 10.9 s⁻¹ |  | 
3 | FIXa-Y155F/R338E/T343R/E410N (protein) chain 1: YNSGKLEEFVQGNLERECMEEKCSFEEAREVFENTERTTEFWKQYVDGDQCESNPCLNGGSCKDDINSYECWCPFGFEGKNCELDVTCNIKNGRCEQFCKNSADNKVVCSCTEGYRLAENQKSCEPAVPFPCGRVSVSQTSKLTR chain 2: VVGGEDAKPGQFPWQVVLNGKVDAFCGGSIVNEKWIVTAAHCVETGVKITVVAGEHNIEETEHTEQKRNVIRIIPHHNYNAAINKYNHDIALLELDEPLVLNSYVTPICIADKEYTNIFLKFGSGYVSGWGRVFHKGRSALVLQYLRVPLVDRATCLESTKFRIYNNMFCAGFHEGGRDSCQGDSGGPHVTEVEGTSFLTGIISWGEECAMKGKYGIYTKVSRYVNWIKNKTKLT | 6 s⁻¹ | 3.5e+08 M⁻¹ s⁻¹ |  |  | 
4 | FIXa-K247N/N249S/R318Y/R338E/T343R (protein) chain 1: YNSGKLEEFVQGNLERECMEEKCSFEEAREVFENTERTTEFWKQYVDGDQCESNPCLNGGSCKDDINSYECWCPFGFEGKNCELDVTCNIKNGRCEQFCKNSADNKVVCSCTEGYRLAENQKSCEPAVPFPCGRVSVSQTSKLTR chain 2: VVGGEDAKPGQFPWQVVLNGKVDAFCGGSIVNEKWIVTAAHCVETGVKITVVAGEHNIEETEHTEQNRSVIRIIPHHNYNAAINKYNHDIALLELDEPLVLNSYVTPICIADKEYTNIFLKFGSGYVSGWGRVFHKGYSALVLQYLRVPLVDRATCLESTKFRIYNNMFCAGFHEGGRDSCQGDSGGPHVTEVEGTSFLTGIISWGEECAMKGKYGIYTKVSRYVNWIKEKTKLT | 8 s⁻¹ | 3.9e+08 M⁻¹ s⁻¹ |  |  | 
5 | FIXa-K228N/R318Y/R338E/T343R/R403E/E410N (protein) chain 1: YNSGKLEEFVQGNLERECMEEKCSFEEAREVFENTERTTEFWKQYVDGDQCESNPCLNGGSCKDDINSYECWCPFGFEGKNCELDVTCNIKNGRCEQFCKNSADNKVVCSCTEGYRLAENQKSCEPAVPFPCGRVSVSQTSKLTR chain 2: VVGGEDAKPGQFPWQVVLNGKVDAFCGGSIVNEKWIVTAAHCVETGVNITVVAGEHNIEETEHTEQKRNVIRIIPHHNYNAAINKYNHDIALLELDEPLVLNSYVTPICIADKEYTNIFLKFGSGYVSGWGRVFHKGYSALVLQYLRVPLVDRATCLESTKFRIYNNMFCAGFHEGGRDSCQGDSGGPHVTEVEGTSFLTGIISWGEECAMKGKYGIYTKVSEYVNWIKNKTKLT |  | 2.7e+08 M⁻¹ s⁻¹ | 10.5 s⁻¹ |  | 
6 | FIXa-Y155F/K247N/N249S/R403E/E410N (protein) chain 1: YNSGKLEEFVQGNLERECMEEKCSFEEAREVFENTERTTEFWKQYVDGDQCESNPCLNGGSCKDDINSYECWCPFGFEGKNCELDVTCNIKNGRCEQFCKNSADNKVVCSCTEGYRLAENQKSCEPAVPFPCGRVSVSQTSKLTR chain 2: VVGGEDAKPGQFPWQVVLNGKVDAFCGGSIVNEKWIVTAAHCVETGVKITVVAGEHNIEETEHTEQNRSVIRIIPHHNYNAAINKYNHDIALLELDEPLVLNSYVTPICIADKEYTNIFLKFGSGYVSGWGRVFHKGRSALVLQYLRVPLVDRATCLRSTKFTIYNNMFCAGFHEGGRDSCQGDSGGPHVTEVEGTSFLTGIISWGEECAMKGKYGIYTKVSEYVNWIKNKTKLT | 2.7 s⁻¹ | 2.4e+07 M⁻¹ s⁻¹ |  |  | 
7 | FIXa-K228N/K247N/N249S/R318Y/T343R/R403E/E410N (protein) chain 1: YNSGKLEEFVQGNLERECMEEKCSFEEAREVFENTERTTEFWKQYVDGDQCESNPCLNGGSCKDDINSYECWCPFGFEGKNCELDVTCNIKNGRCEQFCKNSADNKVVCSCTEGYRLAENQKSCEPAVPFPCGRVSVSQTSKLTR chain 2: VVGGEDAKPGQFPWQVVLNGKVDAFCGGSIVNEKWIVTAAHCVETGVNITVVAGEHNIEETEHTEQNRSVIRIIPHHNYNAAINKYNHDIALLELDEPLVLNSYVTPICIADKEYTNIFLKFGSGYVSGWGRVFHKGYSALVLQYLRVPLVDRATCLRSTKFRIYNNMFCAGFHEGGRDSCQGDSGGPHVTEVEGTSFLTGIISWGEECAMKGKYGIYTKVSEYVNWIKNKTKLT |  | 7.1e+07 M⁻¹ s⁻¹ | 8.1 s⁻¹ |  | 
8 | FIXa-K228N/K247N/N249S/R318Y/R338E/T343R/E410N (protein) chain 1: YNSGKLEEFVQGNLERECMEEKCSFEEAREVFENTERTTEFWKQYVDGDQCESNPCLNGGSCKDDINSYECWCPFGFEGKNCELDVTCNIKNGRCEQFCKNSADNKVVCSCTEGYRLAENQKSCEPAVPFPCGRVSVSQTSKLTR chain 2: VVGGEDAKPGQFPWQVVLNGKVDAFCGGSIVNEKWIVTAAHCVETGVNITVVAGEHNIEETEHTEQNRSVIRIIPHHNYNAAINKYNHDIALLELDEPLVLNSYVTPICIADKEYTNIFLKFGSGYVSGWGRVFHKGYSALVLQYLRVPLVDRATCLESTKFRIYNNMFCAGFHEGGRDSCQGDSGGPHVTEVEGTSFLTGIISWGEECAMKGKYGIYTKVSRYVNWIKNKTKLT |  | 1.3e+08 M⁻¹ s⁻¹ | 4.7 s⁻¹ |  | 
9 | FIXa-D104N/K106S/R318Y/R338E/T343R/R403E/E410N (protein) chain 1: YNSGKLEEFVQGNLERECMEEKCSFEEAREVFENTERTTEFWKQYVDGDQCESNPCLNGGSCKDDINSYECWCPFGFEGKNCELDVTCNIKNGRCEQFCKNSANNSVVCSCTEGYRLAENQKSCEPAVPFPCGRVSVSQTSKLTR chain 2: VVGGEDAKPGQFPWQVVLNGKVDAFCGGSIVNEKWIVTAAHCVETGVKITVVAGEHNIEETEHTEQKRNVIRIIPHHNYNAAINKYNHDIALLELDEPLVLNSYVTPICIADKEYTNIFLKFGSGYVSGWGRVFHKGYSALVLQYLRVPLVDRATCLESTKFRIYNNMFCAGFHEGGRDSCQGDSGGPHVTEVEGTSFLTGIISWGEECAMKGKYGIYTKVSEYVNWIKNKTKLT |  |  |  | 0.0266 µM | 5.7 s⁻¹
10 | FIXa-Y155F/R318Y/R338E/T343R/R403E/E410N (protein) chain 1: YNSGKLEEFVQGNLERECMEEKCSFEEAREVFENTERTTEFWKQYVDGDQCESNPCLNGGSCKDDINSYECWCPFGFEGKNCELDVTCNIKNGRCEQFCKNSADNKVVCSCTEGYRLAENQKSCEPAVPFPCGRVSVSQTSKLTR chain 2: VVGGEDAKPGQFPWQVVLNGKVDAFCGGSIVNEKWIVTAAHCVETGVKITVVAGEHNIEETEHTEQKRNVIRIIPHHNYNAAINKYNHDIALLELDEPLVLNSYVTPICIADKEYTNIFLKFGSGYVSGWGRVFHKGYSALVLQYLRVPLVDRATCLESTKFRIYNNMFCAGFHEGGRDSCQGDSGGPHVTEVEGTSFLTGIISWGEECAMKGKYGIYTKVSEYVNWIKNKTKLT |  |  |  | 0.0272 µM | 7.8 s⁻¹
11 | FIXa-Y155F/R318Y/T343R/E410N (protein) chain 1: YNSGKLEEFVQGNLERECMEEKCSFEEAREVFENTERTTEFWKQYVDGDQCESNPCLNGGSCKDDINSYECWCPFGFEGKNCELDVTCNIKNGRCEQFCKNSADNKVVCSCTEGYRLAENQKSCEPAVPFPCGRVSVSQTSKLTR chain 2: VVGGEDAKPGQFPWQVVLNGKVDAFCGGSIVNEKWIVTAAHCVETGVKITVVAGEHNIEETEHTEQKRNVIRIIPHHNYNAAINKYNHDIALLELDEPLVLNSYVTPICIADKEYTNIFLKFGSGYVSGWGRVFHKGYSALVLQYLRVPLVDRATCLRSTKFRIYNNMFCAGFHEGGRDSCQGDSGGPHVTEVEGTSFLTGIISWGEECAMKGKYGIYTKVSRYVNWIKNKTKLT |  | 1.5e+08 M⁻¹ s⁻¹ | 5 s⁻¹ |  | 
12 | FIXa-R318Y/T343R/E410N (protein) chain 1: YNSGKLEEFVQGNLERECMEEKCSFEEAREVFENTERTTEFWKQYVDGDQCESNPCLNGGSCKDDINSYECWCPFGFEGKNCELDVTCNIKNGRCEQFCKNSADNKVVCSCTEGYRLAENQKSCEPAVPFPCGRVSVSQTSKLTR chain 2: VVGGEDAKPGQFPWQVVLNGKVDAFCGGSIVNEKWIVTAAHCVETGVKITVVAGEHNIEETEHTEQKRNVIRIIPHHNYNAAINKYNHDIALLELDEPLVLNSYVTPICIADKEYTNIFLKFGSGYVSGWGRVFHKGYSALVLQYLRVPLVDRATCLRSTKFRIYNNMFCAGFHEGGRDSCQGDSGGPHVTEVEGTSFLTGIISWGEECAMKGKYGIYTKVSRYVNWIKNKTKLT |  | 6.2e+07 M⁻¹ s⁻¹ | 3.2 s⁻¹ |  | 
13 | FIXa-Y155F/K247N/N249S/T343R/E410N (protein) chain 1: YNSGKLEEFVQGNLERECMEEKCSFEEAREVFENTERTTEFWKQYVDGDQCESNPCLNGGSCKDDINSYECWCPFGFEGKNCELDVTCNIKNGRCEQFCKNSADNKVVCSCTEGYRLAENQKSCEPAVPFPCGRVSVSQTSKLTR chain 2: VVGGEDAKPGQFPWQVVLNGKVDAFCGGSIVNEKWIVTAAHCVETGVKITVVAGEHNIEETEHTEQNRSVIRIIPHHNYNAAINKYNHDIALLELDEPLVLNSYVTPICIADKEYTNIFLKFGSGYVSGWGRVFHKGRSALVLQYLRVPLVDRATCLRSTKFRIYNNMFCAGFHEGGRDSCQGDSGGPHVTEVEGTSFLTGIISWGEECAMKGKYGIYTKVSRYVNWIKNKTKLT | 7.9 s⁻¹ | 2.8e+08 M⁻¹ s⁻¹ |  |  | 
